Source: the supplement of paper PMC10567573

B1: RHOBTB3 (parent)
chain: GGADIIVIKYNVNDKFSFHEVKDN
B2: SNAP91 (parent)
chain: FSTDAFSSPPQGASPVPESSLTAD

Variants of: B1
Assay: protein stability index of a GFP-peptide fusion (GPS, HEK-293T) (PSI 1-6); higher = more stable
Conditions: c terminus: a fixed tail appended
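Note: lentivirally expressed fusions sorted by FACS into six bins by GFP to DsRed ratio, PSI derived from sequencing read proportions per bin multiplied by bin number.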

Protein stability index, by site and new letter:
N24: K 2.73 | S 2.71 | M 3.25 | E 1.44 | G 3 | F 3.49 | I 2.21 | V 3.86 | D 1.94 | H 2.14 | L 3.07 | R 1.86 | T 4.04

Variants of: B2
Assay: as above
Conditions: c terminus: a fixed tail appended

Protein stability index of substitutions, site by site:
P17: L 3.23 | Y 2.69 | A 3.79 | M 3.13 | S 3.86 | W 2.41 | K 2.9 | D 4.14 | C 3.01 | V 3.25 | R 3.31 | I 3.04 | E 3.89 | G 3.66 | F 2.86 | H 3.85 | T 2.83 | Q 3.21 | N 3.52
F1: D 5.72 | C 5.07 | L 5.57 | E 5.47 | Y 3.31 | V 5.52 | N 5.74 | K 5.34 | G 5.54 | P 5.68 | T 5.55 | W 5.19 | S 5.65 | I 5.36 | R 5.39 | A 5.73 | Q 5.64 | M 5.44 | H 5.37
F6: L 5.55 | R 5.49 | E 5.69 | Y 3.26 | I 5.43 | N 5.31 | A 5.57 | Q 5.63 | C 5.09 | M 5.53 | V 5.59 | G 5.48 | T 5.61 | H 5.62 | P 5.53 | W 1.86 | D 5.44 | K 5.38 | S 5.44
S7: C 2.18 | F 1.99 | P 3.56 | A 2.98 | Y 2.9 | R 1.62 | G 3.89 | D 5.47 | V 2.32 | M 2.84 | Q 3.77 | K 2.96 | T 3.33 | E 5.35 | N 4.22 | H 2.51 | L 2.96 | I 2.66 | W 3.15
D4: Q 3.28 | S 2.82 | A 3.25 | W 1.67 | M 2.92 | E 4.2 | H 3.44 | Y 3.02 | K 2.94 | C 2.76 | N 2.66 | F 3.06 | I 3.45 | G 2.71 | V 3.28 | T 2.21 | L 2.63 | R 2.37 | P 4.29
S8: V 3.16 | F 3.22 | L 3.29 | H 2.75 | G 3.67 | E 4.58 | N 2.75 | T 3.33 | C 2.75 | R 2.87 | M 3.02 | K 2.38 | A 3.31 | Y 3.39 | Q 2.86 | P 4 | W 3.44 | D 4.93 | I 2.62
A13: N 3.51 | E 3.22 | P 2.72 | T 3.47 | V 2.75 | I 2.52 | G 2.99 | Q 3.11 | Y 2.85 | R 2.77 | W 2.72 | M 2.93 | L 2.82 | S 3.54 | D 3.45 | H 3.16 | C 2.69 | F 2.54 | K 2.47
T3: I 4.4 | E 5.08 | M 3.37 | Q 5.5 | N 4.84 | G 4.47 | A 5.12 | C 4.3 | W 4.38 | D 5.08 | P 4.49 | S 2.95 | Y 4.46 | L 4.93 | F 4.6 | K 4.93 | V 4.56 | H 5.4 | R 4.91
P9: F 2.46 | I 2.43 | Q 3.02 | D 3.96 | A 2.52 | N 3.13 | G 2.76 | E 4.35 | T 2.85 | L 2.65 | R 2.91 | M 2.16 | K 2.92 | Y 2.45 | H 2.89 | S 3.74 | V 2.74 | C 2.61 | W 2.24
V16: D 3.12 | S 2.96 | N 3.31 | C 2.67 | E 4 | H 3.17 | R 3.22 | L 2.83 | W 2.21 | K 2.96 | A 3.6 | T 2.96 | M 2.68 | Y 2.96 | Q 3.33 | F 2.7 | G 3.66 | I 3.29
P10: L 3.38 | C 2.8 | W 1.72 | R 2.55 | Q 3.24 | A 3.09 | D 3.61 | E 3.23 | K 3.16 | Y 2.18 | S 2.71 | G 2.69 | T 2.73 | V 2.73 | M 2.29 | I 2.42 | N 2.64 | F 2.28 | H 2.29
S2: E 5.52 | C 2.46 | Q 2.58 | I 1.64 | A 2.09 | G 2.8 | H 2.15 | V 3.15 | T 1.67 | F 3.96 | M 3.32 | L 3.34 | W 3.48 | K 5.08 | D 5.7 | N 5.09 | P 3 | Y 4.7 | R 5.05
S14: A 3.57 | D 3.62 | L 3.22 | T 3.29 | I 2.89 | Y 2.84 | M 2.95 | C 3 | H 3.06 | V 2.63 | Q 2.75 | W 2.69 | F 2.54 | G 3.3 | N 3 | R 2.88 | E 3.27 | K 2.9
G12: R 3.11 | H 2.63 | E 3.58 | L 2.75 | V 2.92 | K 2.73 | Q 3.35 | W 2.32 | T 3.5 | I 2.68 | N 3.08 | P 2.93 | Y 2.44 | A 3.39 | F 2.6 | D 3.52 | C 2.62 | M 2.58 | S 2.79
P15: G 2.83 | A 3.25 | F 2.57 | H 3.5 | S 3.03 | Y 2.44 | M 2.72 | I 2.67 | D 3.27 | T 3.17 | K 2.43 | E 3.6 | R 2.97 | N 3.12 | C 2.78 | W 2.37 | V 3.05 | L 2.64 | Q 3.17
Q11: G 3.34 | W 2.2 | I 3.25 | L 2.74 | D 4.01 | S 4.17 | M 2.69 | N 3.13 | K 2.68 | A 3.33 | Y 2.22 | T 3.75 | F 2.68 | V 2.88 | H 3.43 | C 2.56 | E 3.9 | R 3.06 | P 3.27
A5: M 4.56 | I 3.79 | L 3.55 | C 4.07 | E 4.8 | Q 4.88 | P 4.94 | V 4.18 | G 4.76 | S 4.68 | K 4.71 | R 4.71 | W 1.92 | D 5.61 | N 5.16 | Y 2.33 | T 4.96 | F 2.03 | H 4.59
